Residue numbers refer to the chain shown, from its start.
B1: SEQ ID NO 85 (designed binder)
chain: MLPAPKNLVVSRVTEDSARLSWTAPDAAFDSFFIWYWEKSVDGEAIVLTVPGSERSYDLTGLKPGTEYNVGIQGVKGGTPSDPLSAIFTT
notes: FN3 domain
B2: SEQ ID NO 149 (designed binder)
chain: MLPAPKNLVVSRVTEDSARLSWTAPDAAFDSFIIPYAEVRPDGEAIVLTVPGSERSYDLTGLKPGTEYSVLIHGVKGGKLSEPLSAIFTT
notes: FN3 domain
B3: SEQ ID NO 284 (designed binder)
chain: B1 chain with W35G, W37L, K39P, S40Q, V41P, D42P, G71T, T79F, D82M
B4: SEQ ID NO 152 (designed binder)
chain: B1 chain with W35G, W37L, K39P, S40Q, V41P, D42P, G71T, T79F, D82S
notes: FN3 domain
B5: SEQ ID NO 174 (designed binder)
chain: B1 chain with W35G, W37L, K39P, S40Q, V41P, D42P, N69K, G71V, D82E
notes: FN3 domain
B6: SEQ ID NO 257 (designed binder)
chain: MLPAPKNLVVSRVTEDSARLSWTAPDAAFDSFHIVYHEPRPSGEAIVLTVPGSERSYDLTGLKPGTEYEVGIVSVKGGDLSVPLSAIFTT
notes: FN3 domain
B7: SEQ ID NO 136 (designed binder)
chain: MLPAPKNLVVSRVTEDSARLSWTAPDAAFDSFFIYYIESYPAGEAIVLTVPGSERSYDLTGLKPGTEYWMGIDGVKGGRWSTPLSAIFTT
notes: FN3 domain
B8: SEQ ID NO 146 (designed binder)
chain: B2 chain with I33Y, P35A, V39P, K79L, E82S
notes: FN3 domain
B9: SEQ ID NO 164 (designed binder)
chain: B2 chain with I33L, V39T, R40S, D42S, K79H, E82D
notes: FN3 domain
B10: SEQ ID NO 212 (designed binder)
chain: MLPAPKNLVVSRVTEDSARLSWTAPDAAFDSFIIEYWEQIGVGEAIVLTVPGSERSYDLTGLKPGTEYWVGIYGVKGGLLSSPLSAIFTT
notes: FN3 domain
B11: SEQ ID NO 96 (designed binder)
chain: B1 chain with W35G, W37L, K39P, S40Q, V41P, D42P, G71T, T79F, D82M
B12: SEQ ID NO 237 (designed binder)
chain: MLPAPKNLVVSRVTEDSARLSWTAPDAAFDSFTILYGEMGTTGEAIVLTVPGSERSYDLTGLKPGTEYDVFIEGVKGGELSWPLSAIFTT
notes: FN3 domain
B13: SEQ ID NO 197 (designed binder)
chain: MLPAPKNLVVSRVTEDSARLSWTAPDAAFDSFKIDYLEINDNGEAIVLTVPGSERSYDLTGLKPGTEYPVYIWGVKGGYPSSPLSAIFTT
notes: FN3 domain
B14: SEQ ID NO 214 (designed binder)
chain: MLPAPKNLVVSRVTEDSARLSWTAPDAAFDSFAIPYGERQELGEAIVLTVPGSERSYDLTGLKPGTEYFVVIQGVKGGQPSYPLSAIFTT
notes: FN3 domain
B15: SEQ ID NO 168 (designed binder)
chain: B1 chain with A24T, W35G, W37L, K39P, S40Y, V41P, D42P, N69V, G71S, T79K
notes: FN3 domain
B16: SEQ ID NO 233 (designed binder)
chain: B2 chain with I33Y, P35V, V39P, R40I, D42N, K79R, L80N, E82D
notes: FN3 domain
B17: SEQ ID NO 291 (designed binder)
chain: MLPAPKNLVVSRVTEDSARLSWTAPDAAFDSFHIEYEEPETEGEAIYLHVPGSERSYDLTGLKPGTEYKVLIRGVKGGSYSIPLQAPFTT
notes: FN3 domain
B18: SEQ ID NO 281 (designed binder)
chain: MLPAPKNLVVSRVTEDSARLSWTAPDAAFDSFYIDYDEIHDWGEAIVLTVPGSERSYDLTGLKPGTEYAVQIGGVKGGSFSWTLSAIFTT
notes: FN3 domain
B19: SEQ ID NO 309 (designed binder)
chain: B13 chain with K33I, I39L, N40D, D41Q, N42E, P69A, W73F, S82T
notes: FN3 domain
B20: SEQ ID NO 299 (designed binder)
chain: B10 chain with I33L, Q39S, I40V, V42Y, L79Y, L80Y, S82R
notes: FN3 domain
B21: SEQ ID NO 308 (designed binder)
chain: MLPAPKNLVVSEVTEDSARLSWQGVARAFDSFLITYREQIFAGEVIVLTVPGSERSYDLTGLKPGTEYPVWIQGVKGGSPSAPLSAISTT
notes: FN3 domain
B22: SEQ ID NO 301 (designed binder)
chain: MLPAPKNLVVSRVTEDSARLSWTAPDAAFDSFEIEYDEPYRGGEAIVLTVPGSERSYDLTSLKPGTEYPVSIGGVKGGITSDPLSAIFTT
notes: FN3 domain
B23: SEQ ID NO 297 (designed binder)
chain: MLPAPKNLVVSRVTEDSARLSWTAPDAAFDSFLIPYAETSPSGEAITLFVPGSERSYDLTGLKPGTEYNVVIQGVKGGRPSNPLVAASTT
notes: FN3 domain
B24: SEQ ID NO 277 (designed binder)
chain: MLPAPKNLVVSRVTEDSARLSWTAPDAAFDSFWINYYEGIGEGEAIVLTVPGSERSYDLTGLKPGTEYYVDISGVKGGSYSLPLSAIFTT
notes: FN3 domain
B25: SEQ ID NO 83 (designed binder)
chain: B24 chain with W33Y, N35Y, G39S, I40S, E42T, Y69F, S73G
notes: FN3 domain
B26: SEQ ID NO 292 (designed binder)
chain: MLPAPKNLVVSRVTEDSARLSWTAPDAAFDSFDIAYWELTPSGEAIELLVPGSERSYDLTGLKPGTEYRVDIIGVKGGFISEPLGATFTT
notes: FN3 domain
B27: SEQ ID NO 286 (designed binder)
chain: MLPAPKNLVVSRVTEDSARLSWTAPDAAFDSFNIYYPEFPVRGEAIVLTVPGSERSYDLTGLKPGTEYVVSIWGVKGGTQSWPLSAIFTT
notes: FN3 domain
B28: SEQ ID NO 290 (designed binder)
chain: MLPAPKNLVVSRVTEDSARLSWTAPDAAFDSFFYLEQAWGGEAIVLTVPGSERSYDLTGLKPGTEYWVEITGVKGGYASSPLSAIFTT
notes: FN3 domain
B29: SEQ ID NO 274 (designed binder)
chain: MLPAPKNLVVSRVTEDSVRLSWTAPDAAFDSFAISYEEWWVHGEAIVLTVPGSERSYDLTGLKPGTEYSVVIPGVKGGLYSWTLSAISTT
notes: FN3 domain
B30: SEQ ID NO 273 (designed binder)
chain: MLPAPKNLVVSRVTEDSARLSWTAPDAAFDSFTIFKDGEAIVLTVPGSERSYDLTGLKPGTEYYVYIYGVKGGYPSKPLSAIFTT
notes: FN3 domain
B31: SEQ ID NO 294 (designed binder)
chain: MLPAPKNLVVSRVTEDSARLSWTAPDAAFDSFSIIYSEWNVTGEAIVLTVPGSERSYDLTGLKPGTEYDVWIEGVKGGGMSKPLSAISTT
notes: FN3 domain

Molecular target: CD71 on SK-BR-3 cells (human, UniProt P02786 1-760)
Test: cell-based or functional assay

CD71 on SK-BR-3 cells, sequence (P02786 whole entry): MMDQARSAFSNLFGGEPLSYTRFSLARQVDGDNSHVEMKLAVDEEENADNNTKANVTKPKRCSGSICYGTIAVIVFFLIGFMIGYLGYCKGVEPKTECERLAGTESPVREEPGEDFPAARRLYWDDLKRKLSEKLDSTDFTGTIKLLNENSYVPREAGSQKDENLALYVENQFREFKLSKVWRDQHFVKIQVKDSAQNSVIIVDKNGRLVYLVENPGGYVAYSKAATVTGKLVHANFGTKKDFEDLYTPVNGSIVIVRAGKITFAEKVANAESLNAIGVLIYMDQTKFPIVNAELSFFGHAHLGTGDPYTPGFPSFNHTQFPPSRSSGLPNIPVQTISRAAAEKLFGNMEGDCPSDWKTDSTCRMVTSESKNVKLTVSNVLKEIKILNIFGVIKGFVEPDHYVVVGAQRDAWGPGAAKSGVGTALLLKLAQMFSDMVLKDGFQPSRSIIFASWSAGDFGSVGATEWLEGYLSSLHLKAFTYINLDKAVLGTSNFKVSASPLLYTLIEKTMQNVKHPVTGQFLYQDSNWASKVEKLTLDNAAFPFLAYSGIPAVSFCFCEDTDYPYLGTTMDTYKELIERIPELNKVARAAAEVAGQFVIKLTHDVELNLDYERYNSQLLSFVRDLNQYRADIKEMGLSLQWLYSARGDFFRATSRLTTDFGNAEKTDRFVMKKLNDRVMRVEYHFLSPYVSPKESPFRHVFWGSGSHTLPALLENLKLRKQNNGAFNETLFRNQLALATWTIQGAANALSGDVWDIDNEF

Row | Binder | IC50, SKBR-3 viability, MMAF conjugate, second unlabelled column (+/- human transferrin) [nM] | IC50, SKBR-3 viability, MMAF conjugate, first unlabelled column (+/- human transferrin) [nM]
1 | B1 | 89 | –
2 | B2 | 5.5 | 9.7
3 | B3 | 32 | 98
4 | B4 | 5.24 | 19.6
5 | B5 | 158 | –
6 | B6 | 6.5 | 22
7 | B7 | 0.503 | 2.32
8 | B8 | 3.46 | 7.13
9 | B9 | 55.8 | 18.7
10 | B10 | 6.69 | –
11 | B11 | 27 | 79.5
12 | B12 | 3.76 | 28.1
13 | B13 | 0.468 | –
14 | B14 | 29.2 | 28.1
15 | B15 | 7.2 | 32
16 | B16 | 17.7 | 54.6

Molecular target: T1, recombinant biotinylated CD71 extracellular domain (Sino Biologics) with an N-terminal 6His tag (human, UniProt P02786 89-760, biotinylated (sites not given))
T1 construct: extracellular domain; also called hCD71; huCD71
Test: screening ELISA

T1 sequence (P02786 other isoform, or with tags, fused parts or gaps): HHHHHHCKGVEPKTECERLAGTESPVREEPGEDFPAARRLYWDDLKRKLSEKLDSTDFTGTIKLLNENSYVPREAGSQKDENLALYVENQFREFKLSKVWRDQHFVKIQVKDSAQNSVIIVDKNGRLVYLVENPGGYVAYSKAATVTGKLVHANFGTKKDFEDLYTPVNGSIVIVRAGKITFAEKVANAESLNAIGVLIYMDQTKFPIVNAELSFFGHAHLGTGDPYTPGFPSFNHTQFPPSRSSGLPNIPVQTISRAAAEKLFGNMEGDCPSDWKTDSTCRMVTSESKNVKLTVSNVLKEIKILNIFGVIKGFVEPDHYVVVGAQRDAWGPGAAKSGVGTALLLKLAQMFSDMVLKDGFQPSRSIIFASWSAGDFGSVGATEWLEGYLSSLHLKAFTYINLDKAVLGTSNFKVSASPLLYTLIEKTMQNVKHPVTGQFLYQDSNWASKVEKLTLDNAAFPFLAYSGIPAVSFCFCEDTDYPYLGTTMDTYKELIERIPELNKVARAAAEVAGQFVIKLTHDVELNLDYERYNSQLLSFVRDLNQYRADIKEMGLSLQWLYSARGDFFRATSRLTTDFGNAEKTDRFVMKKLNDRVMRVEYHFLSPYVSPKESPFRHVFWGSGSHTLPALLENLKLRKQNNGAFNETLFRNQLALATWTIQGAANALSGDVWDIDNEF

Row | hCD71 | Binder
17 | 3.83e+06 | B17
18 | 1.07e+06 | B18
19 | 3.14e+06 | B19
20 | 2.91e+06 | B1
21 | 2.77e+06 | B2
22 | 2.83e+06 | B4
23 | 2.42e+06 | B5
24 | 2.37e+06 | B6
25 | 4.03e+06 | B7
26 | 3.07e+06 | B8
27 | 2.6e+06 | B9
28 | 2.49e+06 | B10
29 | 4.15e+06 | B12
30 | 4.57e+06 | B13
31 | 2.14e+06 | B14
32 | 2.9e+06 | B15
33 | 3.41e+06 | B16
34 | 4.27e+06 | B20
35 | 609000 | B21
36 | 660000 | B22
37 | 2.59e+06 | B23
38 | 3.11e+06 | B24
39 | 1.93e+06 | B25
40 | 2.62e+06 | B26
41 | 1.27e+06 | B27
42 | 2.81e+06 | B28
43 | 522000 | B29
44 | 4.65e+06 | B30
45 | 1.44e+06 | B31

Molecular target: T1, recombinant biotinylated CD71 …
Test: screening ELISA, ratio

Row | hCD71:HSA | Binder
46 | 1780 | B17
47 | 48 | B18
48 | 1100 | B19
49 | 1160 | B1
50 | 826 | B2
51 | 534 | B4
52 | 1100 | B5
53 | 601 | B6
54 | 706 | B7
55 | 809 | B8
56 | 2370 | B9
57 | 1110 | B10
58 | 2240 | B12
59 | 242 | B13
60 | 974 | B14
61 | 1480 | B15
62 | 1310 | B16
63 | 1940 | B20
64 | 50 | B21
65 | 55 | B22
66 | 49 | B23
67 | 598 | B24
68 | 1480 | B25
69 | 296 | B26
70 | 118 | B27
71 | 237 | B28
72 | 44 | B29
73 | 508 | B30
74 | 174 | B31
